Results reported in article PMC2191977 (The Journal of Experimental Medicine, 1995).

Molecular target: T1, B7 E199A (mouse, UniProt Q00609 38-306, E199A)
T1 sequence (looked up): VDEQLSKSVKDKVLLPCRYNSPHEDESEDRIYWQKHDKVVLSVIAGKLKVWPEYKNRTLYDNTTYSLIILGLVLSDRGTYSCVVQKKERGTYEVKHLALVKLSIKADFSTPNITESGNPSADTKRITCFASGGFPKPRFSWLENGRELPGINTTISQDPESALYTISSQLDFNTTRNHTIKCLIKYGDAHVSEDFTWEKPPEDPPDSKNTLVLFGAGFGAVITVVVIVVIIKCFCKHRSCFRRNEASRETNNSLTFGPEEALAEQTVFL
Assay: flow cytometry on cells

B1: CD28Ig (Fc fusion, mouse, UniProt P31041 20-150, looked up)
chain: NKILVKQSPLLVVDSNEVSLSCRYSYNLLAKEFRASLYKGVNSDVEVCVGNGNFTYQPQFRSNAEFNCDGDFDNETVTFRLWNLHVNHTDIYFCKIEFMYPPPYLDNERSNGTIIHIKEKHLCHTQSSPKL
% wild-type B7 binding (normalised to anti-B7 mAb 10.16A.1): 31% | MF (mean fluorescence, control subtracted): 16 MF
